Laboratory results: patent publication US7919461B2, “Erythropoietin receptor peptide formulations and uses” (Affymax, Inc., priority 2005, dated 2011)
Entries after “also recorded” stand apart in the source; their conditions may differ. Bridge positions count the residues as written; N and C are the ends. Square brackets hold non-standard residues; d marks the D form. Ends that are not written are not given here. 1Nal = N[C@@H](Cc1cccc2ccccc12)C(=O)O; Sar = CNCC(=O)O

Experiments:
[1] = Pharmacology studies in animals, stimulation of erythropoiesis; assay type: in vivo, mice; rats, dogs, rabbits and monkeys
[2] = Pharmacokinetic studies in rats; assay type: in vivo; settings: species not stated
[3] = Phase II multi-dose once-monthly SC study in pre-dialysis chronic kidney disease patients; assay type: in vivo, human
Protocol: A multi-center, open-label, sequential dose-finding phase II clinical trial involving patients with chronic kidney disease was performed in order to evaluate the safety and pharmacodynamics of multiple doses of once-monthly (Q4W) subcutaneous (SC) delivery of Peptide I (SEQ ID NO:2). A total of 60 erythropoiesis-stimulating-agent-naïve, pre-dialysis, chronic kidney disease (CKD) patients [hemoglobin (Hgb) levels 9.0-10.9 g/dL, ferritin >100 ug/L and transferrin saturation (TSAT)>20%] were enrolled into three dose cohorts. Patients received up to six once-monthly SC drug doses. The starting doses were 0.025 mg/kg (n=15), 0.050 mg/kg (n=30) and 0.075 mg/kg (n=15). Dose titration was allowed after the first dose, based on patient Hgb levels.
Dose titrations were allowed after the patient's initial dose. Dose adjustments were ±25% of the previous dose, depending on the patient's measured hemoglobin (Hgb) level.

[4] = Phase 1 single IV dose study in normal healthy volunteers, pharmacodynamics; assay type: in vivo, human
From the text: (§1) Peptide I has been tested in […] in one Phase 1 study. This first-in-human study with Peptide I was a randomized, double-blind, placebo-controlled, single-dose, IV, escalating dose, safety and tolerability trial. The primary objectives of the study were to evaluate the safety and pharmacokinetics of Peptide I, and to establish a pharmacologically active dose (PAD). Cohorts of seven male volunteers were scheduled to receive single doses of Peptide I or placebo in a 5:2 ratio. Cohorts were to be added at increasing dose levels until a PAD, as determined by an increase in hemoglobin from baseline values, was observed, at which point the dose level identified as the PAD would be repeated in another cohort of volunteers.
(§2) The study was initiated in four cohorts were enrolled in a consecutive manner at Peptide I doses of 0.025, 0.05, 0.1 mg/kg, and […], respectively (single dose per cohort). […] As such, the study was terminated.

[5] = Phase 1 single IV dose study in normal healthy volunteers, safety; assay type: in vivo, human
From the text: as §1, §2

[6] = Phase 1 single IV dose study in normal healthy volunteers, pharmacokinetics; assay type: in vivo, human; settings: dose normalized, ANOVA
From the text: as §1, §2
In the 0.025 mg/kg dose group, Peptide I concentration peaked between 5 and 15 minutes, while tmax approached 1 hour for the 0.1 mg/kg dose.

PEGylated homodimer of peptide monomers (AcG)GLYACHMGPIT(1-nal)VCQPLR(MeG)K (SEQ ID NO: 2); fully synthetic EPO receptor agonist (Ac-GGLYACHMGPIT[1Nal]VCQPLR[Sar]K; disulfide 6-15 (inferred); not fully specified (residue 1); printed as (AcG)GLYACHMGPIT(1-nal)VCQPLR(MeG)K; also: homodimer via branched linker on K21 ε-amino group, PEG attached to linker) [Peptide I]
rise in reticulocytes and RBCs as measured by hemoglobin levels ([1]; rats and monkeys): dose proportional | stimulation of erythropoiesis ([1]; single or repeat dose, mice, rats (normocythemic and nephrectomized), dogs, rabbits, monkeys): dose-dependent activity | Biodistribution [2]: primarily to the plasma fraction | patients reporting adverse events ([3]; 60 patients): 18% | injection site reaction ([3]; SC): no injection site reaction was reported | hemoglobin (Hgb) increase ([3]; dosed monthly): sustained increase in hemoglobin (Hgb) up to week 22 | number of adverse events ([3]; human, in vivo): 36 | relation of adverse events to study drug ([3]; human, in vivo): not related to study drug | tolerability of multiple monthly subcutaneous injections ([3]; human, in vivo, sc): well-tolerated | correction of anaemia ([3]; monthly dosing): correction of anaemia in patients by week eight | increase in hemoglobin associated with the PAD ([4]; 0.1 mg/kg): ≥ 1.0 g/dL | average maximum increase in hemoglobin from baseline ([4]; 0.1 mg/kg, 10 recipients): 1.36 ± 0.39 g/dL | average hemoglobin levels at Day 42 ([4]; 0.1 mg/kg, Day 42): returned to baseline | difference in change from baseline hemoglobin versus placebo ([4]; 0.1 mg/kg, Day 42 as throughout the study): ≥ 0.5 g/dL | time of maximum reticulocyte counts postdose ([4]; all dose cohorts): approximately 7 days | changes in other pharmacodynamic parameters (red cell count, hematocrit, ferritin, reticulocyte hemoglobin content, soluble transferrin receptor, EPO) ([4]; human, in vivo): consistent with stimulation of erythropoiesis | hemoglobin response and change from baseline (mean and maximum) ([4]; over 28 days post-dose): dose-dependent increases | Reticulocyte count (absolute number and percent) ([4]; single IV 0.025, 0.05, 0.1 mg/kg): dose-dependent increase | pharmacologically active dose (PAD) ([4]; single IV dose, NHV): 0.1 mg/kg | Serum EPO levels ([4]; with increasing dose): transiently decreased | abdominal pain, frequency ([5]; Peptide I recipients): 10.0% | headache, frequency ([5]; Peptide I recipients): 20.0% | nasopharyngitis, frequency ([5]; Peptide I recipients): 10.0% | nausea, frequency ([5]; Peptide I recipients): 10.0% | subjects who experienced adverse events ([5]; Peptide I recipients): 11 of 20 | Serious Adverse Events ([5]; human, in vivo): no Serious Adverse Events | antibodies specific to Peptide I ([5]; human, in vivo): None of the subjects in this trial developed antibodies | vital signs, electrocardiograms (ECGs) or laboratory values ([5]; human, in vivo): no clinically significant changes | safety and tolerability ([5]; single IV doses of 0.025, 0.05, or 0.1 mg/kg): safe and well tolerated | AUC(0-infinity) relationship with dose [6]: evidence of non-linearity at the highest dose of 0.1 mg/kg; also recorded: nonlinear at the 0.1 mg/kg dose
